From patent US11156615B2 (priority 2015, dated 2021)

Legend:
[1] = Glucose-dependent fluorescence emission intensity spectra of conjugates (Nanodrop3300); assay type: biochemical; conditions: for Type of fluorescence response to glucose: Nanodrop3300
Excerpt: Semi-synthetic FRSs were engineered by site-specifically attaching thiol-reactive, environmentally sensitive fluorophores that respond to ligand-mediated conformational changes. Identification of FRS candidates that are useful for sensing applications comprises three steps: • 1. Cysteine scan. Mutant glucose-binding proteins containing single cysteines are constructed for site-specific attachment of thiol-reactive fluorophores. […] Candidate positions fall into three classes: endosteric, replacing a residue that contacts the ligand directly; peristeric, located at the rim of the binding site; allosteric (Marvin et al. 1997 Proc Natl Acad Sci USA, 94, 4366-71; Marvin 1998 J Am Chem Soc, 120, 7-11), located outside the binding site at sites that undergo local structural changes in concert with the hinge-bending motion. • 2. Fluorophore screening. Thiol-reactive, environmentally sensitive fluorophores are attached to each cysteine mutant prepared in step 1. • 3. Evaluation of the glucose-mediated change of all the fluorescent conjugates prepared in step 2. Responses to ligand binding in which there is both a change in fluorescence emission intensity and spectral shape was essential for chemometric applications, because such changes enable ratiometric measurements. Changes in spectral shape typically are accompanied by a shift in the wavelength of the emission intensity maxima. Three classes of fluorescent responses are possible: • i. No response. • ii. Monochromatic response (emission intensity increases or decreases without a change in spectral shape) • iii.

[2] = Glucose binding: isothermal fluorescence titrations, ratiometric (appKd) and monochromatic (trueKd) fits; conditions: Acrylodan conjugate, room temperature
Excerpt: 2 For a single glucose-binding site, the fractional saturation is given by
[formula] where ^apoIλ2 and ^satIλ2 are the emission intensities of the monochromatic signal at wavelength λ2 of the ligand-free and ligand-bound protein, respectively.

[3] = Galactose binding: isothermal fluorescence titrations of conjugates; conditions: Acrylodan conjugate; for S, selectivity = trueKd(galactose)/trueKd(glucose): S > 1, selective for glucose; for Kd: read-out: Galactose trueKd, monochromatic titration curves, room temperature
[4] = Thermostability: mid-point thermal denaturation temperature (Tm) from temperature-dependent fluorescence (Roche LightCycler); assay type: physicochemical; conditions: Acrylodan conjugate; apo-protein
Excerpt: Protein (un)folding is monitored by binding of SYPRO to the unfolded state as a function of temperature. Fluorescence intensity increases upon binding of SYPRO by the unfolded state.
Panels A-C: ttGBP182C.2.0-Imm0; Panels D-F: ttGBP182C.2.0-Imm1 (see FIG. 13). (A) Solution (Tm=347.6K). (B) Immobilized on Nickel-nitriloacetic acid (Ni-NTA) beads (Tm=346.7K). (C) Reconstituted, desiccated Ni-NTA beads (Tm=347.6K). (D) Fluorescence response of ttGGBP5.2 Imm1 immobilized on NHS-functionalized agarose beads. Data was collected on a Roche LightCycler real-time PCS instrument, recording emission intensities at 488 nm and 510 nm as a function of temperature in a 384-well microtiter plate. […] Temperature melts of twelve different wells. Apo protein thermostability as reported by the denaturation mid-point temperature is 349 K, similar to the protein free in solution. […] (F) Representative Langmuir ligand-binding curve extracted from the three-dimensional data.
Temperatures were advanced in 1K steps. […] Under these experimental photobleaching was not observed.

[5] = read-out: Glucose appKd, dichromatic ratiometry
[6] = read-out: Glucose trueKd, monochromatic titration curves

Molecule | direction of emission wavelength shift upon glucose binding ([1]; isochromic / hypsochromic / bathochromic) | Kd [2, 5] | Kd [2, 6] | S, selectivity = trueKd(galactose)/trueKd(glucose) [3] | Kd [3] | Type of fluorescence response to glucose ([1]; Acrylodan conjugate of ttGGBP or ecGGBP (Ec) cysteine mutant) | Type of fluorescence response to glucose ([1]; Acrylodan conjugate of ttGGBP.17C mutant) | apoTm [4]
ecGGBP W183C⋅Acrylodan: Acrylodan attached to W183C mutant of E. coli GGBP (SEQ ID NO: 32) | bathochromic |  |  |  |  |  |  | 
W183C (Ec) |  |  |  |  |  | r (b) (r (b), ratiometric (bathochromic shift)) |  | 
ttGGBP17C.9: affinity-tuning mutant, 17C background, SEQ ID NO: 74 (protein, ttGGBP17C.9 (affinity-tuning mutant, 17C background (Table 6) with signal peptide replaced with M and GGSHHHHHH at C-terminus)) MKQLNIGVAIYKFDDSCMTGVRNAMTAEAQGKAKLNMVDSQNSQPTQNDQVDLFITKKMNALAINPVDRTAAGTIIDKAKQANIPVVFFNREPLPEDMKKWDKVYYVGAKAEQSGILQGQIMADYWKAHPEADKNHDGVMQYVMLMGQPGHQDAILRTQYSIQTVKDAGIKVQELAKDYANWDRVTAHDKMAAWLSSFGDKIEAVFANNDDMALGAIEALKSAGYFTGNKYIPVVGVDATAPGIQAIKDGTLLGTVLNDAKNQAKATFNIAYELAQGITPTKDNIGYDITDGKYVWIPYKKITKDNISDAEQGGSHHHHHH |  | 0.2 mM | 0.2 mM |  |  |  | r(h) (r(h), ratiometric (hypsochromic shift)) | 
ttGGBP182C.5: affinity-tuning mutant, 182C background, SEQ ID NO: 99 (protein, ttGGBP182C.5 (affinity-tuning mutant, 182C background (Table 6) with signal peptide replaced with M and GGSHHHHHH at C-terminus)) MKQLNIGVAIYKFDDTFMTGVRNAMTAEAQGKAKLNMVDSQNSQPTQNDQVDLFITKKMNALAINPVDPTAAGTIIDKAKQANIPVVFFNREPLPEDMKKWDKVYYVGAKAEQSGILQGQIMADYWKAHPEADKNHDGVMQYVMLMGQPGHPDAILRTQYSIQTVKDAGIKVQELAKDYANCDRVTAHDKMAAWLSSFGDKIEAVFANNDDMALGAIEALKSAGYFTGNKYIPVVGVDATAPGIQAIKDGTLLGTVLNDAKNQAKATFNIAYELAQGITPTKDNIGYDITDGKYVWIPYKKITKDNISDAEQGGSHHHHHH |  | 7.5 mM | 8.8 mM | 0.8 | 7.4 mM |  |  | 349 K
ttGGBP182C.6: affinity-tuning mutant, 182C background, SEQ ID NO: 100 (protein, ttGGBP182C.6 (affinity-tuning mutant, 182C background (Table 6) with signal peptide replaced with M and GGSHHHHHH at C-terminus)) MKQLNIGVAIYKFDDNFMTGVRNAMTAEAQGKAKLNMVDSQNSQPTQNDQVDLFITKKMNALAINPVDRTAAGTIIDKAKQANIPVVFFNREPLPEDMKKWDKVYYVGAKAEQSGILQGQIMADYWKAHPEADKNHDGVMQYVMLMGQPGHQDAILRTQYSIQTVKDAGIKVQELAKDYANCDRVTAHDKMAAWLSSFGDKIEAVFANNDAMALGAIEALKSAGYFTGNKYIPVVGVDATAPGIQAIKDGTLLGTVLNDAKNQAKATFNIAYELAQGITPTKDNIGYDITDGKYVWIPYKKITKDNISDAEQGGSHHHHHH |  | 21.6 mM | 27.6 mM | 2.9 | 81 mM |  |  | 345 K
ttGGBP182C.8: affinity-tuning mutant, 182C background, SEQ ID NO: 102 (protein, ttGGBP182C.8 (affinity-tuning mutant, 182C background (Table 6) with signal peptide replaced with M and GGSHHHHHH at C-terminus)) MKQLNIGVAIYKFDDTFMTGVRNAMTAEAQGKAKLNMVDSQNSQPTQNDQVDLFITKKMNALAINPVDRTAAGTIIDKAKQANIPVVFFNKEPLPEDMKKWDKVYYVGAKAEQSGILQGQIMADYWKAHPEADKNHDGVMQYVMLMGKPGHQDAILRTQYSIQTVKDAGIKVQELAKDYANCDRVTAHDKMAAWLSSFGDKIEAVFANNDDMALGAIEALKSAGYFTGNKYIPVVGVDATAPGIQAIKDGTLLGTVLNDAKNQAKATFNIAYELAQGITPTKDNIGYDITDGKYVWIPYKKITKDNISDAEQGGSHHHHHH |  | 28.7 mM | 44.2 mM | 5.8 |  |  |  | 346 K

The remaining molecules from weak to strong by Kd [2, 6], led by results:

direction of emission wavelength shift upon glucose binding ([1]; isochromic / hypsochromic / bathochromic) | Kd [2, 5] | Kd [2, 6] | S, selectivity = trueKd(galactose)/trueKd(glucose) [3] | Kd [3] | Molecule | Type of fluorescence response to glucose ([1]; Acrylodan conjugate of ttGGBP or ecGGBP (Ec) cysteine mutant) | Type of fluorescence response to glucose ([1]; Acrylodan conjugate of ttGGBP.17C mutant) | apoTm [4]
 | 75.1 mM | 76.4 mM | 3.7 |  | ttGGBP182C.9: affinity-tuning mutant, 182C background, SEQ ID NO: 103 (protein, ttGGBP182C.9 (affinity-tuning mutant, 182C background (Table 6) with signal peptide replaced with M and GGSHHHHHH at C-terminus)) MKQLNIGVAIYKFDNTFMTGVRNAMTAEAQGKAKLNMVDSQNSQPTQNDQVDLFITKKMNALAINPVDRTAAGTIIDKAKQANIPVVFFNREPLPEDMKKWDKVYYVGAKAEQSGILQGQIMADYWKAHPEADKNHDGVMQYVMLMGQPGHQDAILRTQYSIQTVKDAGIKVQELAKDYANCDRVTAHDKMAAWLSSFGDKIEAVFANNDDMALGAIEALKSAGYFTGNKYIPVVGVDATAPGIQAIKDGTLLGTVLNDAKNQAKATFNIAYELAQGITPTKDNIGYDITDGKYVWIPYKKITKDNISDAEQGGSHHHHHH |  |  | 343 K
 |  | 0.9 mM |  | 3.1 mM | ttGGBP182C.3: affinity-tuning mutant, 182C background, SEQ ID NO: 97 (protein, ttGGBP182C.3 (affinity-tuning mutant, 182C background (Table 6) with signal peptide replaced with M and GGSHHHHHH at C-terminus)) MKQLNIGVAIYKFDDTFMTGVRNAMTAEAQGKAKLNMVDSQNSQPTQNDQVDLFITKKMNALAINPVDRTAAGTIIDKAKQANIPVVFFNKEPLPEDMKKWDKVYYVGAKAEQSGILQGQIMADYWKAHPEADKNHDGVMQYVMLMGQPGHQDAILRTQYSIQTVKDAGIKVQELAKDYANCDRVTAHDKMAAWLSSFGDKIEAVFANNDDMALGAIEALKSAGYFTGNKYIPVVGVDATAPGIQAIKDGTLLGTVLNDAKNQAKATFNIAYELAQGITPTKDNIGYDITDGKYVWIPYKKITKDNISDAEQGGSHHHHHH |  |  | 346 K
 | 0.6 mM | 0.8 mM | 8.1 | 6.5 mM | ttGGBP182C.4: affinity-tuning mutant, 182C background, SEQ ID NO: 98 (protein, ttGGBP182C.4 (affinity-tuning mutant, 182C background (Table 6) with signal peptide replaced with M and GGSHHHHHH at C-terminus)) MKQLNIGVAIYKFDDTFMTGVRNAMTAEAQGKAKLNMVDSQNSQPTQNDQVDLFITKKMNALAINPVDRTAAGTIIDKAKQANIPVVFFNREPLPEDMKKWDKVYYVGAKAEQSGILQGQIMADYWKAHPEADKNHDGVMQYVMLMGEPGHQDAILRTQYSIQTVKDAGIKVQELAKDYANCDRVTAHDKMAAWLSSFGDKIEAVFANNDDMALGAIEALKSAGYFTGNKYIPVVGVDATAPGIQAIKDGTLLGTVLNDAKNQAKATFNIAYELAQGITPTKDNIGYDITDGKYVWIPYKKITKDNISDAEQGGSHHHHHH |  |  | 347 K
